Where two headings read alike, the source gives them in different places. Square brackets hold non-standard residues; d marks the D form. * marks the point of attachment. Bip = N[C@@H](Cc1ccc(-c2ccccc2)cc1)C(=O)O; Phe(4-I) = N[C@@H](Cc1ccc(I)cc1)C(=O)O; dPhe(4-I) = N[C@H](Cc1ccc(I)cc1)C(=O)O; 2Nal = N[C@@H](Cc1ccc2ccccc2c1)C(=O)O; d2Nal = N[C@H](Cc1ccc2ccccc2c1)C(=O)O; Bta = N[C@@H](Cc1csc2ccccc12)C(=O)O; Tic = O=C(O)[C@@H]1Cc2ccccc2CN1; For = O=C*
B1: SKY4-48-28, Ac-Bip-Arg-(pI)DPhe-Phe-NH2 (peptide)
peptide: Ac-[Bip]R[dPhe(4-I)]F-NH2
SMILES: CC(=O)N[C@@H](Cc1ccc(-c2ccccc2)cc1)C(=O)N[C@@H](CCCNC(=N)N)C(=O)N[C@H](Cc1ccc(I)cc1)C(=O)N[C@@H](Cc1ccccc1)C(N)=O
B2: SKY4-48-31, Ac-Phe-Arg-(pI)DPhe-Phe-NH2 (peptide)
peptide: Ac-FR[dPhe(4-I)]F-NH2
SMILES: CC(=O)N[C@@H](Cc1ccccc1)C(=O)N[C@@H](CCCNC(=N)N)C(=O)N[C@H](Cc1ccc(I)cc1)C(=O)N[C@@H](Cc1ccccc1)C(N)=O
B3: SKY5-142-A, For-DPhe-(pI)Phe-DArg-DHis-NH2 (peptide)
peptide: For-[dF][Phe(4-I)][dR][dH]-NH2
SMILES: N=C(N)NCCC[C@@H](NC(=O)[C@H](Cc1ccc(I)cc1)NC(=O)[C@@H](Cc1ccccc1)NC=O)C(=O)N[C@H](Cc1c[nH]cn1)C(N)=O
B4: SKY4-48-26, Ac-Arg-Arg-(pI)DPhe-Phe-NH2 (peptide)
peptide: Ac-RR[dPhe(4-I)]F-NH2
SMILES: CC(=O)N[C@@H](CCCNC(=N)N)C(=O)N[C@@H](CCCNC(=N)N)C(=O)N[C@H](Cc1ccc(I)cc1)C(=O)N[C@@H](Cc1ccccc1)C(N)=O
B5: SKY4-48-30, Ac-Tic-Arg-(pI)DPhe-Phe-NH2 (peptide)
peptide: Ac-[Tic]R[dPhe(4-I)]F-NH2
SMILES: CC(=O)N1Cc2ccccc2C[C@H]1C(=O)N[C@@H](CCCNC(=N)N)C(=O)N[C@H](Cc1ccc(I)cc1)C(=O)N[C@@H](Cc1ccccc1)C(N)=O
B6: SKY5-146-4, Ac-3Bal-Arg-(pI)DPhe-Phe-NH2 (peptide)
peptide: Ac-[Bta]R[dPhe(4-I)]F-NH2
SMILES: CC(=O)N[C@@H](Cc1csc2ccccc12)C(=O)N[C@@H](CCCNC(=N)N)C(=O)N[C@H](Cc1ccc(I)cc1)C(=O)N[C@@H](Cc1ccccc1)C(N)=O
B7: SKY5-146-7, Ac-His-Arg-(pI)DPhe-Trp-NH2 (peptide)
peptide: Ac-HR[dPhe(4-I)]W-NH2
SMILES: CC(=O)N[C@@H](Cc1c[nH]cn1)C(=O)N[C@@H](CCCNC(=N)N)C(=O)N[C@H](Cc1ccc(I)cc1)C(=O)N[C@@H](Cc1c[nH]c2ccccc12)C(N)=O
B8: SKY4-48-32, Ac-Nal(2')-Arg-(pI)DPhe-Phe-NH2 (peptide)
peptide: Ac-[2Nal]R[dPhe(4-I)]F-NH2
SMILES: CC(=O)N[C@@H](Cc1ccc2ccccc2c1)C(=O)N[C@@H](CCCNC(=N)N)C(=O)N[C@H](Cc1ccc(I)cc1)C(=O)N[C@@H](Cc1ccccc1)C(N)=O

Legend:
[1] = target: mouse melanocortin-5 receptor (mouse, UniProt P41149 1-325); assay: cell-based or functional assay
mouse melanocortin-5 receptor, sequence (P41149 whole entry): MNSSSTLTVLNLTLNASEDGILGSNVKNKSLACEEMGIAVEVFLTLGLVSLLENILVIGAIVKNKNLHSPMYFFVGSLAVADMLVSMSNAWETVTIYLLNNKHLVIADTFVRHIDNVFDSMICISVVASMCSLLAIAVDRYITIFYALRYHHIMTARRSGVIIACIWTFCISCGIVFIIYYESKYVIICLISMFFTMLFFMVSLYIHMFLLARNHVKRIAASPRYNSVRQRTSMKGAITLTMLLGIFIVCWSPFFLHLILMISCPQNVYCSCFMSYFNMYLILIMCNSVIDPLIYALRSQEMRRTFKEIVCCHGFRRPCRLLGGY

[2] = target: T1, mouse melanocortin-3 receptor (mouse, UniProt P33033 1-323); assay: cell-based or functional assay
T1 sequence (P33033 whole entry): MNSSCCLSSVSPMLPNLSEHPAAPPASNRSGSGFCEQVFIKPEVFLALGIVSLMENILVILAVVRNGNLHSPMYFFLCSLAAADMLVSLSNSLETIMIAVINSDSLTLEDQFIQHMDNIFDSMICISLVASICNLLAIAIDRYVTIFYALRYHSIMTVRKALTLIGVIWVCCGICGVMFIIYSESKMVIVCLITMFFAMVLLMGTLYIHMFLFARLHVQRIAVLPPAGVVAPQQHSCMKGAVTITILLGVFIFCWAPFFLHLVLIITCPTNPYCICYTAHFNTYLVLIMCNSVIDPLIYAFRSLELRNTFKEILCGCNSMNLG

[3] = target: mouse melanocortin-1 receptor (mouse, UniProt Q01727 1-315); assay: cell-based or functional assay
mouse melanocortin-1 receptor, sequence (Q01727 whole entry): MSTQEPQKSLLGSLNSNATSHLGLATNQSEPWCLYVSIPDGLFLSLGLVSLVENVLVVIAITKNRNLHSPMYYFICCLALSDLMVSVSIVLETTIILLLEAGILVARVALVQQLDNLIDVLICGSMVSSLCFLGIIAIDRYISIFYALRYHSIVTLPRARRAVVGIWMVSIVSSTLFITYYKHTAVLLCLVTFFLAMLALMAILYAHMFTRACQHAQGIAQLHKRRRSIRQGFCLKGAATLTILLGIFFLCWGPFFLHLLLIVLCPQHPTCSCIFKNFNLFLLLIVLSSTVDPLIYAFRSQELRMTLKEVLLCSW

[4] = target: T2, mouse melanocortin-4 receptor (mouse, UniProt P56450 1-332); assay: cell-based or functional assay
T2 sequence (P56450 whole entry): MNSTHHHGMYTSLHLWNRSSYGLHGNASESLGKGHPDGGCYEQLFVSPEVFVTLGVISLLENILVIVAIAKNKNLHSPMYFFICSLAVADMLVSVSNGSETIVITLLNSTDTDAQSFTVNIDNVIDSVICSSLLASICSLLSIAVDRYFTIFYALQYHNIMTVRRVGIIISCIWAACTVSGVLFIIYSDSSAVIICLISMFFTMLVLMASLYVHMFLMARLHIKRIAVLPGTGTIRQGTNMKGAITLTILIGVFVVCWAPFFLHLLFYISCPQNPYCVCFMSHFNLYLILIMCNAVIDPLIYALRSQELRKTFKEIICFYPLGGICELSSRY

[5] = target: T1, mouse melanocortin-3 receptor; assay: cell-based or functional assay; remark: listed apart in the source
[6] = target: T2, mouse melanocortin-4 receptor; assay: cell-based or functional assay; remark: listed apart in the source
[7] = target: T2, mouse melanocortin-4 receptor; assay: cell-based or functional assay; remark: listed apart in the source
[8] = target: T1, mouse melanocortin-3 receptor; assay: 125I-NDP-MSH competitive displacement, HEK293 cells stably expressing mMC3R; negative = more potent than control
Source text: (§1) A typical experiment utilized a 12-well format.

[9] = target: T2, mouse melanocortin-4 receptor; assay: 125I-NDP-MSH competitive displacement, HEK293 cells stably expressing mMC4R; negative = more potent than control
Source text: as §1

| Binder | Agonist, % of NDP-MSH maximal response [1] | Agonist, % of NDP-MSH maximal response [2] | Agonist, % of NDP-MSH maximal response [7] | other results |
| --- | --- | --- | --- | --- |
| B1 | 69 % @ 100 µM | 77 % @ 100 µM |  |  |
| B2 | 52 % @ 100 µM | 50 % @ 100 µM |  |  |
| Ac-[2Nal]R[dPhe(4-I)][d2Nal]-NH2 [SKY4-48-48, Ac-Nal(2')-Arg-(pI)DPhe-DNal(2')-NH2] | 40 % @ 100 µM | 31 % @ 100 µM |  | Agonist, % of NDP-MSH maximal response [3]: 53 % @ 100 µM |
| B3 |  |  |  | Antagonist Ki [4]: > 3.1 µM; pA2 (antagonist) [5]: 6.7 pA2; Agonist, % of NDP-MSH maximal response [6]: 47 % @ 100 µM |
| Ac-RR[dPhe(4-I)][2Nal]-NH2 [SKY4-48-34, Ac-Arg-Arg-(pI)DPhe-Nal(2')-NH2] |  | 51 % @ 100 µM |  |  |
| Ac-[Tic]R[dPhe(4-I)][Bip]-NH2 [SKY5-146-1, Ac-Tic-Arg-(pI)DPhe-Bip-NH2] |  |  |  | Agonist, % of NDP-MSH maximal response [3]: 39 % @ 100 µM |
| Ac-RR[dPhe(4-I)][Bip]-NH2 [SKY4-48-2, Ac-Arg-Arg-(pI)DPhe-Bip-NH2] |  | 45 % @ 100 µM | 32 % @ 100 µM | Agonist, % of NDP-MSH maximal response [3]: 44 % @ 100 µM |
| Ac-HR[dPhe(4-I)][2Nal]-NH2 [SKY4-48-35, Ac-His-Arg-(pI)DPhe-Nal(2')-NH2] |  | 57 % @ 100 µM | 35 % @ 100 µM |  |
| Ac-[Tic]R[dPhe(4-I)][Bta]-NH2 [SKY4-48-14, Ac-Tic-Arg-(pI)DPhe-3Bal-NH2] |  |  |  | Agonist, % of NDP-MSH maximal response [3]: 38 % @ 100 µM |
| Ac-[d2Nal]R[dPhe(4-I)][d2Nal]-NH2 [SKY4-48-49, Ac-DNal(2')-Arg-(pI)DPhe-DNal(2')-NH2] | 43 % @ 100 µM | 40 % @ 100 µM | 37 % @ 100 µM |  |
| Ac-[Bta]R[dPhe(4-I)][2Nal]-NH2 [SKY4-48-37, Ac-3Bal-Arg-(pI)DPhe-Nal(2')-NH2] | 50 % @ 100 µM |  |  |  |
| Ac-[Tic]R[dPhe(4-I)][d2Nal]-NH2 [SKY4-48-46, Ac-Tic-Arg-(pI)DPhe-DNal(2')-NH2] | 74 % @ 100 µM | 42 % @ 100 µM | 33 % @ 100 µM |  |
| Ac-FR[dPhe(4-I)][Bip]-NH2 [SKY4-48-7, Ac-Phe-Arg-(pI)DPhe-Bip-NH2] |  | 30 % @ 100 µM |  | Agonist, % of NDP-MSH maximal response [3]: 67 % @ 100 µM |
| Ac-[Bta]R[dPhe(4-I)][Tic]-NH2 [SKY4-48-21, Ac-3Bal-Arg-(pI)DPhe-Tic-NH2] |  |  | 37 % @ 100 µM |  |
| Ac-[Tic]R[dPhe(4-I)][Tic]-NH2 [SKY6-24-1, Ac-Tic-Arg-(pI)DPhe-Tic-NH2] |  |  | 36 % @ 100 µM |  |
| Ac-RR[dPhe(4-I)][Bta]-NH2 [SKY4-48-10, Ac-Arg-Arg-(pI)DPhe-3Bal-NH2] |  |  | 24 % @ 100 µM | Fold Diff. (IC50 against SKY4-48-1) [8]: -52 fold; Fold Diff. (IC50 against SKY4-48-1) [9]: 1 fold |
| Ac-HR[dPhe(4-I)][Bta]-NH2 [SKY4-48-11, Ac-His-Arg-(pI)DPhe-3Bal-NH2] |  |  | 47 % @ 100 µM | Fold Diff. (IC50 against SKY4-48-1) [8]: -15 fold; Fold Diff. (IC50 against SKY4-48-1) [9]: 2 fold |
| B4 |  |  |  | Fold Diff. (IC50 against SKY4-48-1) [8]: -8 fold; Fold Diff. (IC50 against SKY4-48-1) [9]: 4 fold |
| B5 | 21 % @ 100 µM |  |  |  |

| Binder | Agonist, % of NDP-MSH maximal response [1] | Agonist, % of NDP-MSH maximal response [2] | Agonist, % of NDP-MSH maximal response [7] | other results |
| --- | --- | --- | --- | --- |
| Ac-[Bta]R[dPhe(4-I)][Bip]-NH2 [SKY4-48-5, Ac-3Bal-Arg-(pI)DPhe-Bip-NH2] |  | 51 % @ 100 µM | 35 % @ 100 µM |  |
| Ac-[2Nal]R[dPhe(4-I)][Tic]-NH2 [SKY4-48-24, Ac-Nal(2')-Arg-(pI)DPhe-Tic-NH2] |  |  | 33 % @ 100 µM |  |
| Ac-[Bip]R[dPhe(4-I)][2Nal]-NH2 [SKY4-48-36, Ac-Bip-Arg-(pI)DPhe-Nal(2')-NH2] | 21 % @ 100 µM |  |  | Agonist, % of NDP-MSH maximal response [3]: 23 % @ 100 µM |
| Ac-[d2Nal]R[dPhe(4-I)][Bip]-NH2 [SKY5-146-2, Ac-DNal(2')-Arg-(pI)DPhe-Bip-NH2] |  | 30 % @ 100 µM | 42 % @ 100 µM |  |
| Ac-[Bip]R[dPhe(4-I)][Bip]-NH2 [SKY4-48-4, Ac-Bip-Arg-(pI)DPhe-Bip-NH2] |  |  | 24 % @ 100 µM |  |
| Ac-[2Nal]R[dPhe(4-I)][2Nal]-NH2 [SKY4-48-40, Ac-Nal(2')-Arg-(pI)DPhe-Nal(2')-NH2] | 45 % @ 100 µM | 39 % @ 100 µM |  |  |
| B6 | 35 % @ 100 µM | 37 % @ 100 µM |  |  |
| Ac-[Tic]R[dPhe(4-I)][2Nal]-NH2 [SKY4-48-38, Ac-Tic-Arg-(pI)DPhe-Nal(2')-NH2] | 48 % @ 100 µM |  |  | Agonist, % of NDP-MSH maximal response [3]: 66 % @ 100 µM |
| Ac-[Bip]R[dPhe(4-I)][d2Nal]-NH2 [SKY4-48-44, Ac-Bip-Arg-(pI)DPhe-DNal(2')-NH2] | 55 % @ 100 µM | 32 % @ 100 µM |  |  |
| B7 |  |  |  | Agonist, % of NDP-MSH maximal response [6]: 29 % @ 100 µM; pA2 (antagonist) [6]: 6 pA2 |
| Ac-[d2Nal]R[dPhe(4-I)][2Nal]-NH2 [SKY5-146-5, Ac-DNal(2')-Arg-(pI)DPhe-Nal(2')-NH2] | 40 % @ 100 µM | 43 % @ 100 µM | 39 % @ 100 µM |  |
| Ac-HR[dPhe(4-I)][Bip]-NH2 [SKY4-48-3, Ac-His-Arg-(pI)DPhe-Bip-NH2] |  | 53 % @ 100 µM | 43 % @ 100 µM |  |
| Ac-FR[dPhe(4-I)][2Nal]-NH2 [SKY4-48-39, Ac-Phe-Arg-(pI)DPhe-Nal(2')-NH2] | 61 % @ 100 µM | 44 % @ 100 µM |  |  |
| Ac-[Bta]R[dPhe(4-I)][d2Nal]-NH2 [SKY4-48-45, Ac-3Bal-Arg-(pI)DPhe-DNal(2')-NH2] | 41 % @ 100 µM | 34 % @ 100 µM | 38 % @ 100 µM | Agonist, % of NDP-MSH maximal response [3]: 36 % @ 100 µM |
| B8 | 49 % @ 100 µM | 42 % @ 100 µM |  |  |
| Ac-HR[dPhe(4-I)][d2Nal]-NH2 [SKY4-48-43, Ac-His-Arg-(pI)DPhe-DNal(2')-NH2] | 47 % @ 100 µM |  | 50 % @ 100 µM |  |
| Ac-FR[dPhe(4-I)][d2Nal]-NH2 [SKY4-48-47, Ac-Phe-Arg-(pI)DPhe-DNal(2')-NH2] | 39 % @ 100 µM | 22 % @ 100 µM |  |  |
| Ac-[d2Nal]R[dPhe(4-I)][Bta]-NH2 [SKY4-48-17, Ac-DNal(2')-Arg-(pI)DPhe-3Bal-NH2] |  |  | 45 % @ 100 µM |  |
